Test results reported in the nanobody polyreactivity screen of Harvey et al. (2022).

Experiment: yeast display, Sf9 membrane polyspecificity reagent, FACS + sequencing; frameworks hold sequencing errors
How it was run: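 Galactose-induced (36–48 hours) yeast carrying a synthetic nanobody display library were exposed to 10% biotinylated, detergent-solubilized Sf9 membrane reagent at 4 °C for 1 hour. FACS followed streptavidin microbead enrichment, using low and high (top ~1%) gates for expression (anti-HA) and reagent binding (streptavidin). Colony PCR, MiSeq 2 × 250 sequencing and CDR-length filtering followed. Labels for polyreactivity reflect the gate of origin.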

Sequence	polyreactivity (PSR sort gate)
QVQLVESGGGLVQAGGSLRLTCAASGSTFIRNTMGWYRQAPGKERELVAAISRSGVRTYYADSVKGRFTISRDNAKNTVYLQMNSLKPEDTAVYYCNVLRYRLWGQGTQVTVSS	high polyreactivity
QVQLVESGGGLVQAGGSLRLTCAASGSTFKYYAMGWYRQAPGKERELVAAINQSGGNTFYAESVKGRFTISRDNAKNSVSLQINSLKPEDTAVYYCAADYYFYTIVSSEMDYWGQGSQVTVSS	high polyreactivity
QVQLVESGGGLVQAGGSLRLTCAASGSTFLYYAMGWSREGPGNERELVATITHGGATNYADSVKGRFTISRDNAKNTVYLELNSLIPDDTAVYYCATDSYHYSYGYASLPEYDYWGHGTQVTVSS	low polyreactivity
QVQLVESGGGLVQAGGSLRLTCAASGSTFNRYAMGWYRQAPGKERELVAAITSTGGTNYADSVKGRFTISLDNAKNTVYLQMNSLKPEDTAFYYCAKRWLRWRSNYWGQGTQVTVSS	high polyreactivity
QVQLVESGGGLVQAGGSLRLTCAASGSTFQHYAMGWYRQAPGKEMELVAAITNTGGSTYYADSVKGRFTISRDNAKNTVYLQMNSLKPEDNAVYYCATVARRYGYPGYYWGQGTQVTVSS	low polyreactivity
QVQLVESGGGLVQAGGSLRLTCAASGSTFRGNTMGWSRQAPGKERELVAAISWDGGTTYYADSVKGRFTISRDNAKNTVYLQMNCLKPEDTAVYYCAADWTGQEYEYWGQGTQVTVSS	low polyreactivity
QVQLVESGGGLVQAGGSLRLTCAASGSTFTAYAMGWYRQAPGKERELVADISDSGGSTYYADSVKGRFTISRDNAKNTVYLQMNSLIPEDTAVYYCAVDVRAYVVSKFDSWGQGTQVTVSS	low polyreactivity
QVQLVESGGGLVQAGGSLRLTCAASGSTFWFYAMGWYRQAPGKERELVATITIGGRTYADSVKGRYTISRDNAKNTVYLQMNSLKPEDTAVYYCAARRVRLEYVYGRYDYWGQGTQVTVSS	low polyreactivity
QVQLVESGGGLVQAGGSLRLTCAASGSTFWYYAMGWYRQAPGKERELVASITYSGGSTYYADSVKGRFTISRDNAKNTVYLQMNSLKPEDTAVYYCAKDGVSPSLRAYAAGYDYWGQGTQVTVSS	low polyreactivity
QVQLVESGGGLVQAGGSLRLTCAASGSTFYSNAMGWYRQATGKERELVASIRFSGVITTYADSVKGRFTISRDNAKNTVYLQMNSLKPEDTAVYYCAAGYLSTTAYDYWGQGTQVTVSS	low polyreactivity
QVQLVESGGGLVQAGGSLRLTCAASGTIFYYNAMRWYRQAPGKERELVAAISWSGSRTYYADSVKGRFTISRDNAKITVYLQMNSLKPEDTAVYYCAAVVRFPFTYDYWGQGTQVTVSS	high polyreactivity
QVQLVESGGGLVQAGGSLRLTCAASGVTFRYYAMVWYRQAPGKERELVAAITGSGTRTYYADSVKGRFTISRDNAKNTLYLQMNSLKPEDTAVYYCNAPRQPRWFDYWGQGTQVTVSS	high polyreactivity
QVQLVESGGGLVQAGGSLRLTCAASRLTFDDNAMGWYRQAPGKERELVAAISYNGGSTYYADSVKGRFTISRDNAKNTVYLQMNSLKPEDTAVYYCAADISVGRYGDMDYWGQGTQVTVSS	low polyreactivity
QVQLVESGGGLVQAGGSLRLTCAASVSIFPHYTMGWYRPAPGKERELVDAISNYGSSTYYADSVKGRFTISRDNAKNTVYLQMNSLKPEDSEVYYCNADDYGYSPGVNYWGQGTQVTVSS	low polyreactivity
QVQLVESGGGLVQAGGSLRLTCAAYGRIFRGYAMGWYRQAPGKERDLVAAISGSGGSTYNADSVKGRFTISRDNAKNTVYLQMNSLKPEDTAVYYCNAGWYFYGETTDDYWGQGTQVTVSS	low polyreactivity
QVQLVESGGGLVQAGGSLRLTCAAYGRIYINTMGWYRQPPGKERELVAAITWSGGNTYYADSVKGRFTISRDNAKNTVYLQMNSLKPEDTAVYYWAVGGYLRSVSYIRLGNYYWGQGTQVTVSS	high polyreactivity
QVQLVESGGGLVQAGGSLRLTFAASGINLYDNVMGWYRTAPGKERELVAAISSSGTTKYYADSVKGRFTISRDYAKNTFYLQMNSLNPEDTAVYYCAADGITWYAIAYYYWGQGTQVTVSS	high polyreactivity
QVQLVESGGGLVQAGGSLRLTSAASGFTFPYTDMGWYRPAPGKERELVADISSGGSTYYADSVKGRFTISRDNAKINVYLQMISLKPEDTAVYYCAAREAYSIRIYQGFGYWGQGTQVTVSS	low polyreactivity
QVQLVESGGGLVQAGGSLRLTSAASGITFYGYAMGWYRQAPGKETELVAAISRSGSSTYYADSVKGRFTISRYNAKNTVYLQMNSLKPEVTAVYYCAARAWAQWGDYWGQGTQLTVSS	high polyreactivity
QVQLVESGGGLVQAGGSLRLTSAASGSIFPYNAMGWYRPAPGKDSELLARISWSGGSTYYADSVKGRFTISRDNAKNTVYLQMKSLKPEDTALYYGAATIIFDAQYRFYYWGQGTQVTVSS	low polyreactivity
QVQLVESGGGLVQAGGSLRLTSAASGSIFQPYAMGWYRQAPVKERELVASIRGSAGSTHYADSVKGRFTISRDNAKNTVYLQMNSLKPEDTAVYYCAARAVASHFSPRLYGYWGQGTQVTVSS	high polyreactivity
QVQLVESGGGLVQAGGSLRLTSAGSGGILPKNAMGWSRQAPGKERELVADISTRGTSTYYADSVKGRFTISRDIAKNTVYLQMNSVKPEVTAVYYCANCRDYIGYDYWGQGSQVTVSS	low polyreactivity

Sequence	polyreactivity (PSR sort gate)
QVQLVESGGGLVQAGGSLRVSCAASGFTFALYAMGWYRQAPGKERELVAAISWSGGTTYYADSVKGRFTISRDNEKNTVDLQMNSLNPEDTAVYYCNAYTRSRGYDYWGQGTQVTVSS	high polyreactivity
QVQLVESGGGLVQAGGSLRVSCAASGFTFGSYAMGWYRQSPGKERELVAVITRSGRTNYADSVKGRFTISRDNAKNTVYLQMNSLKPEDTAVYYCNADDVDDEVSPDLTEMDYWGQGTQVTVSS	low polyreactivity
QVQLVESGGGLVQAGGSLRVSCAASGGIFGWYAMGWSRQAPGKERELVATITWRGGRTYYADSVKGRCTISRDNAKNTVYLQLTSLKPESTAVYYCTAEWLWYDAGYRYTIRDSWGQGTQVTESS	low polyreactivity
QVQLVESGGGLVQAGGSLRVSCAASGGIFWYYTMGWYRQAPGKERELVATISSGGRTYYADSVKGRFTISRDNAKNTVYLQMNSLKPEDTAVYYCAAVGWYHDYYWGQGTQVTVSS	high polyreactivity
QVQLVESGGGLVQAGGSLRVSCAASGIFPAYDMGWYRQAPGKDRELVASISADSGSTHYADSVKGRFTISRDNAKNTVYFQMNSLKPEDTAVYYCAADLGYRTGDYYWGQGTQVTVSS	low polyreactivity
QVQLVESGGGLVQAGGSLRVSCAASGIIFYGYAMGWYRQAPGKEMELVAVITSGGSTNYADSVKGRFTISRDNAKNTVYLQMNSLKPEDTAVYYCAAKYHYFGFRYDYWGQGTQVTVSS	high polyreactivity
QVQLVESGGGLVQAGGSLRVSCAASGRIIPSYAMGWYRQAPGKERELVAVIRSSVDGTYYADSVKGRFTISRDNAKNTVYLQMNSLKPEDTAVYYCAADSYPFFNLNQYPVREGEYGHWGQGTQVTVSS	low polyreactivity
QVQLVESGGGLVQAGGSLRVSCAASGRILSRNAMGWYRQAPGKERELVAAISISGGSTYYADSVKGRFTISRDNAKNTVYLQMNSLKPEDTAVYYCNTAYYGSRKYDYWGQGTQVTVSS	high polyreactivity
QVQLVESGGGLVQAGGSLRVSCAASGRTFGPYAMGWYRQAPGKERELVAAINSGDRTYYADSVKGRFTISRDNAKNTVYLQMNSLKQEDTAVYYCNARSRRPDDYWGQGTQVTVSS	low polyreactivity
QVQLVESGGGLVQAGGSLRVSCAASGRTFRYYDMGWYRQAPGKEREFVAAITWRGGSTYYADSVKGRFTISRDNAKNTVYLQMNSLKPEDTAVYYCAADPFDDQLQYDYWGQGTQVTVSS	low polyreactivity
QVQLVESGGGLVQAGGSLRVSCAASGSFFVPYAMGWYRHAPGKERELVAAISRGGDTNYADSEKGRFTISRDNAKNTVYLQRNSLKPEDTAVYYCNRARHHYSRWHGGYYYWGQGTQETVSS	low polyreactivity
QVQLVESGGGLVQAGGSLRVSCAASGSIFSSYAMGWYRQAPGKDRELVAVINSGGSTNYADSVKGRFTISRDNAKNTVYFQMNTLKPEDTAVYYCNAYGGTFHNSAAEFDYWGQGTQVSVSS	low polyreactivity
QVQLVESGGGLVQAGGSLRVSCAASGSIFYSYGMGWYRQAPVKERELVAAITSSGGGTYYADSVKGRFTISRDNAKNSVYLQMNSLKPEDTAVYYCAAHDRNYNYYPTFYYWGQGTQVSVSS	low polyreactivity
QVQLVESGGGLVQAGGSLRVSCAASGSTFFRYVMGWYRQAPGNERELVARITSSGSTYYADSVKGRFTISRDNAKNTVYLQMNSLKPEDTAVYYCAAVYASYPYRTKFYYWGQGTQVTVSS	high polyreactivity
QVQLVESGGGLVQAGGSLRVSCAASGSTFGGNAMGWYRQAPGKERELSTYYADSVKGRFTISRDNAKNTVYLQMNSLKPEDTAVYYCNTENFYGSDIFDSWGQGTQVTVSS	low polyreactivity
QVQLVESGGGLVQAGGSLRVSCAASGSTFNINAMGWYREAPGKERELVAAISSGGSTNYADSVKGRFTISRDNAKNTVYLQMNSLKPEDTAVYYCNADFILSGWWGIVGYDYWGQGTQVTVSS	low polyreactivity
QVQLVESGGGLVQAGGSLRVSCAASGSTFQYYAMGWYRQAPGKERELVARISDSSANTYYADSVKGRFTISRDNAKNTVYLQMNSLKPEYTAVYYCATRRSHVLSEMDYWGQGTQVTVSS	low polyreactivity
QVQLVESGGGLVQAGGSLRVSCAASGYTFKHYTMGWYREAPGKERELVATISIRGGNTSYADSVKGRFTISRDTAKNTVYLQMNSLKPEDTAVYYCAARSVNAPPRYRQKAGYDYWGQGTQETVSS	high polyreactivity
QVQLVESGGGLVQAGGSLRVSCADSGNILYLYAMGWYREAPGKERELVAAISGNGGRTYYADSVKGRFTISRDNAKNTVYLQMNSLKPEDTAVYDCAADYAGRRFWYYHGLDSWGQGTQVTVSA	high polyreactivity
QVQLVESGGGLVQAGGSLSLICAASGFTFGSNDMGWYRQAPGKERELVAAIDGSGDTYYADSVKGRFTISRDNAKNTVYLQMNSLKPEDTAVYYCARDDNPIYSGVTYDYWGQGTQVTVSS	low polyreactivity
QVQLVESGGGLVQAGGSLSLICAASGFTFVDYAMGWYRQAPGKERELVAAITVSGDSTYYADSVKGRFTISRDIAKNTVYFQMNSLKPEDTAVYYCAADPGYYDGGYWGQGTQVTVSS	low polyreactivity
